Literature values in paper PMC11329504, “Identification of novel small molecule-based strategies of COL7A1 upregulation and readthrough activity for the treatment of recessive dystrophic epidermolysis bullosa” (Scientific Reports, 2024).

Biological target: Laminin 5 (Homo sapiens) (UniProt Q16787)

Sequence of Collagen VII NC1 NC1 (Q02388 17-1253): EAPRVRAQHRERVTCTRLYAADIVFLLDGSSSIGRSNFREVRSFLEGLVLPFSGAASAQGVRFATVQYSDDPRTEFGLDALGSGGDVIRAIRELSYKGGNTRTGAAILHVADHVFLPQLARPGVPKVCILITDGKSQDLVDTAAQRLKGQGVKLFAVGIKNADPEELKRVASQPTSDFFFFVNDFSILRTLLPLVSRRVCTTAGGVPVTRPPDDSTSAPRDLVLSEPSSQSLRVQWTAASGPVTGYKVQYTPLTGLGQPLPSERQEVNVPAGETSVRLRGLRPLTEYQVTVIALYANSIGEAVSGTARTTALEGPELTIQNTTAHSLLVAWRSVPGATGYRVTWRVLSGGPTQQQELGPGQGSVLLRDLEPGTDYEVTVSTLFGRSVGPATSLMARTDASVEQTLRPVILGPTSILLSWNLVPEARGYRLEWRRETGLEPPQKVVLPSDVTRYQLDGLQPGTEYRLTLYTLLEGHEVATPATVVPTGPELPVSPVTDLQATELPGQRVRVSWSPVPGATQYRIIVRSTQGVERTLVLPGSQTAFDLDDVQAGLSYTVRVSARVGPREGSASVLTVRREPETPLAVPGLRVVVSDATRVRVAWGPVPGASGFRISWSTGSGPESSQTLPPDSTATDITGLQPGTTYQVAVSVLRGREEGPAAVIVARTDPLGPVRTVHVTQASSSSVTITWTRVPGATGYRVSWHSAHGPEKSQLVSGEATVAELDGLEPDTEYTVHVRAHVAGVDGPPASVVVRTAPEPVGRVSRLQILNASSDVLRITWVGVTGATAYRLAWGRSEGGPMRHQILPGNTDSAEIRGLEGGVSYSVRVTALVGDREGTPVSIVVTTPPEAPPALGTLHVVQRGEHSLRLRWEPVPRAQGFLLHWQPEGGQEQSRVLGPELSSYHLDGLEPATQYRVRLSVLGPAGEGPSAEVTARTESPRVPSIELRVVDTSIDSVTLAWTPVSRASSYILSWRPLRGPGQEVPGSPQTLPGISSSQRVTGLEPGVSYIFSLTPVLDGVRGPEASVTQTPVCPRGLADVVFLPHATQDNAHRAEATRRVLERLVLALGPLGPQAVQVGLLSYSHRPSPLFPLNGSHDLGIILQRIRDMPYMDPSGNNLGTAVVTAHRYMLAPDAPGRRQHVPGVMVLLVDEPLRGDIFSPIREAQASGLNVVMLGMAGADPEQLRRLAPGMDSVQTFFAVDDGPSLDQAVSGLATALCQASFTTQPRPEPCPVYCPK

Question: Which Kd does the source give for “Collagen VII NC1 NC1 (from UniProt Q02388)” here?
Answer: 48 nM
